{
  "source": "paper PMC10369947",
  "binders": {"B1": {"name": "Cognate-Motif Cy5-DNA (90 bp) (dsDNA)", "DNA 1": "GTTTTGTGAGTACGCGCTGTTGTACTATTGTTAACCCACAAGGTCGCACAGTAAACGGCACACTGTACGTGTTGCTTCGAGAGAGCGCGC", "DNA 2": "GCGCGCTCTCTCGAAGCAACACGTACAGTGTGCCGTTTACTGTGCGACCTTGTGGGTTAACAATAGTACAACAGCGCGTACTCACAAAAC", "modifications": "internal backbone Cy5 in strand 2"}, "B2": {"name": "hsp70 tandem Cy5/Cy7 DNA (187 bp) (dsDNA)", "DNA 1": "TCATTTGTTTGGCAGAAAGAAAACTCTCAAAATTTCGTTGGCCGTTATAGCATATTCGTTTTGTGAGAGAGGGAGAGAGTACTATTGTTAACCCACAAGGTCGCACAGTAAACGGCACACTGTACGTGTTGCTTCGAGAGAGCGCGCCACCTGGTGTCGCGAAAAGAGCGCCGGAGTATAAATAGAG", "DNA 2": "CTCTATTTATACTCCGGCGCTCTTTTCGCGACACCAGGTGGCGCGCTCTCTCGAAGCAACACGTACAGTGTGCCGTTTACTGTGCGACCTTGTGGGTTAACAATAGTACTCTCTCCCTCTCTCACAAAACGAATATGCTATAACGGCCAACGAAATTTTGAGAGTTTTCTTTCTGCCAAACAAATGA", "modifications": "amino-C6-T coupled dyes"}, "B3": {"name": "hsp70 Site 2 Only Cy5/Cy7 DNA (dsDNA)", "DNA 1": "B2 DNA 1 with G65C, A66C, G67A, A68G, G69C, G71C, G72T, A74T, G75A, G77T", "DNA 2": "B2 DNA 2 with C111A, C113T, T114A, C116A, C117G, C119G, T120C, C121T, T122G, C123G", "modifications": "amino-C6-T coupled dyes"}, "B4": {"name": "hsp70 flipped Cy5/Cy7 DNA (187 bp) (dsDNA)", "DNA 1": "TCATTTGTTTGGCAGAAAGAAAACTCTCAAAATTTCGTTGGCCGTTATAGCATATTCGTTTTGTGACTCTCCCTCTCTGTACTATTGTTAACCCACAAGGTCGCACAGTAAACGGCACACTGTACGTGTTGCTTCGAGAGAGCGCGCCACCTGGTGTCGCGAAAAGAGCGCCGGAGTATAAATAGAG", "DNA 2": "CTCTATTTATACTCCGGCGCTCTTTTCGCGACACCAGGTGGCGCGCTCTCTCGAAGCAACACGTACAGTGTGCCGTTTACTGTGCGACCTTGTGGGTTAACAATAGTACAGAGAGGGAGAGTCACAAAACGAATATGCTATAACGGCCAACGAAATTTTGAGAGTTTTCTTTCTGCCAAACAAATGA", "modifications": "amino-C6-T coupled dyes"}},
  "test_in_all_cases": "smFRET",
  "key": {"GAF-DBD (GAF-ZnF, Cy3) [1]": {"target": "T1, GAF-DBD (GAF-ZnF, Cy3) (Drosophila melanogaster, UniProt Q08605)", "T1 sequence": "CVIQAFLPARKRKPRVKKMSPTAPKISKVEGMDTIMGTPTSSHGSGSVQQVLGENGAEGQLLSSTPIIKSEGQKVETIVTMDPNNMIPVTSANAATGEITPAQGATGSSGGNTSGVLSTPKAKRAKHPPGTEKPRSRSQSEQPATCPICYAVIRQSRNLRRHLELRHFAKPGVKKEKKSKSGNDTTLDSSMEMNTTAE"}, "GAF-DBD (GAF-ZnF, Cy3) [2]": {"target": "T1, GAF-DBD (GAF-ZnF, Cy3)", "remark": "listed apart in the source"}, "GAF-DBD (GAF-ZnF, Cy3) [3]": {"target": "T1, GAF-DBD (GAF-ZnF, Cy3)", "remark": "listed apart in the source"}, "GAF-DBD (GAF-ZnF, Cy3) [4]": {"target": "T1, GAF-DBD (GAF-ZnF, Cy3)", "remark": "listed apart in the source"}},
  "note": "Positions count from the first letter of the chain named. Read-outs that look alike come from different tables or passages of the source.",
  "data": [
    {"binder": "B1", "values": [
      {"measurement": "binding result", "setting": "GAF-DBD (GAF-ZnF, Cy3) [1]", "value": "binds"}
    ]},
    {"binder": "B2", "values": [
      {"measurement": "binding result", "setting": "GAF-DBD (GAF-ZnF, Cy3) [2]", "value": "binds"}
    ]},
    {"binder": "B3", "values": [
      {"measurement": "binding result", "setting": "GAF-DBD (GAF-ZnF, Cy3) [3]", "value": "binds"}
    ]},
    {"binder": "B4", "values": [
      {"measurement": "binding result", "setting": "GAF-DBD (GAF-ZnF, Cy3) [4]", "value": "binds"}
    ]}
  ]
}
